Source: a protein production outcome set (Wang et al. 2014)

Assay: label from the status in PepcDB records

MSLISIFIPEILLVIMGFIVLAVGMFIQSGKASAAISFITLIAALLSVFFIPYDSSYGITVNKFSVYFSAVLIISALFISLPMYRYVKKRPEVFYASLIFSVIGMVIVAMTWNLVIAFVAFESVSIMTYIMSAYGGKQRNLEATIKYFFTGTIATTFIILGIGFYFFSVHTFSLSPVLNGSSISYYSGTKPEFLLALLFLLIGFGFKLAIFPMHQWAIDAYDGTENGVSAYLSTGTKIMAFVLVLKIFLVGFQSFPTPVYYMFTIIAIITMTYANVAALSQMNVKRLLAYSSVAQAGYMILVISVVSYVGLGSARSVSLAIAAGMFYALVYVFMKGGSFIAMNMVKEDNITFENISGLGKKSPYVAASFSILLLSLAGIPLTGGFLAKYFLFLSVIDSGLWWLAIIAIINSAISVFYYMKVMRYLFWEEPKGEFSTDMGNKAAVIVSAAIVVFLGVFYVLFPVLVGISSQIVG
protein production: failed

MSLIVVTGGAGFIGSHVVDKLSESNEIVVIDNLSSGNEEFVNEAARLVKADLAADDIKDYLKGAEEVWHIAANPDVRIGAENPDEIYRNNVLATYRLLEAMRKAGVSRIVFTSTSTVYGEAKVIPTPEDYPTHPISLYGASKLACEALIESYCHTFDMQAWIYRFANVIGRRSTHGVIYDFIMKLKRNPEELEILGNGEQNKSYIYISDCVDAMLFGLRGDERVNIFNIGSEDQIKVKRIAEIVCEELGLSPRFRFTGGDRGWKGDVPVMLLSIEKLKRLGWKPRYNSEEAVRMAVRDLVEDLDEEGHHHHHH
protein production: not failed

MSLIYQIAKEFDFCYGHRVWSQELNPDFSLDPCLSCRHLHGHQGKVIVHLESRELQRGMVTDFAHLNWFKRFIDEVLDHRFIIDIDDPLFPTLLPHFADKSALVWMEEGYARVDFERIKGESSPILELYESFVVVRFVPTSESIASWLLELLRSRIQPLGVKVSSVEFLETPKSRARVYNEGHHHHHH
protein production: not failed

MSLKDKKILIVEDSKFQAKTIANILNKYGYTVEIALTGEAAVEKVSGGWYPDLILMDIELGEGMDGVQTALAIQQISELPVVFLTAHTEPAVVEKIRSVTAYGYVMKSATEQVLITIVEMALRLYEANVHANEGHHHHHH
protein production: not failed

MSLKFENTGLENQTVELSRLDDIMERLGFVRAAQWDYERVTYDRKYVVKEGTYYLRVQGYAIEGNVDSRYALIKLLTPIMGKHYYPHGVEYGDDEHFPSSLVSQCQNVLAQVKSELEKIKEEGHHHHHH
protein production: not failed

MSLKFQKLSGLVLCFLIALPAWFLGQSFPLVGAPVFAIFLGMLLAIFYKNREHTEAGIAFTSKYILQFAVVLLGFGLNLSQVLTVGKTSLPIIVATISSSLLLAFLLQKWFKLDVNTATLVGVGSSICGGSAIAATAPVIQADGDEIAQSISVIFLFNILAALIFPTLGDMIGLSNHGFALFAGTAVNDTSSVTATAAAWDGLHHSNTLDGATIVKLTRTLAIIPITLGLSFYQVYKTKKVGKNQQHTVKLKKVFPMFILYFILASIITTILTALGVNPIFFTPLKTLSKFCIVMAMGAIGLNTNIVKLVKTGGQAIVLGASCWIVITLVSLGMQHLLGIW
protein production: failed

MSLKKALFLILDQYADWEGVYLASALNQREDWSVHTVSLDPIVSSIGGFKTSVDYIIGLEPANFNLLVMIGGDSWSNDNKKLLHFVKTAFQKNIPIAAICGAVDFLAKNGLLNNHSHTGNFVYLWKDYKQYKPISSFVEKQAVRDKNLVTANGTAPIEFTNLILEMIDFDTPENIEKMMYMNRYGFYHFCDKYGNPFVEGHHHHHH
protein production: not failed

MSLKKKIAVVTGATGGMGIEIVKDLSRDHIVYALGRNPEHLAALAEIEGVEPIESDIVKEVLEEGGVDKLKNLDHVDTLVHAAAVARDTTIEAGSVAEWHAHLDLNVIVPAELSRQLLPALRAASGCVIYINSGAGNGPHPGNTIYAASKHALRGLADAFRKEEANNGIRVSTVSPGPTNTPMLQGLMDSQGTNFRPEIYIEPKEIANAIRFVIDAGETTQITNVDVRPRIELADRKEGHHHHHH
protein production: not failed

MSLKLIGMLDSPYVRRVAISLKSLGLPFEHHSLSVFSTFEQFKAINPVVKAPTLVCEGGEVLMDSSLIIDYLETLAGPQRSLMPTALPQRLRELRLVGLALAACEKSVQIVYERNLRPAEKQHGPWLERVGGQLQAAYGELEQELQKQPLPRDGSLGQAGISLAVAWSFSQMMVADQFNPGQFPAVRGFAEYAEQLPVFLATPATEGHHHHHH
protein production: not failed

MSLKTGRSNIIAFIVPDQNPFFTEVLTEISHECQKHHLHVAVASSEENEDKQQDLIETFVSQNVSAIILVPVKSKFQMKREWLKIPIMTLDRELESTSLPSITVDNEEAAYIATKRVLESTCKEVGLLLANPNISTTIGRKNGYNKAISEFDLNVNPSLIHYSDQQLGTNAQIYSGYEATKTLLSKGIKGIVATNHLLLLGALQAIKESEKEIKKDVIIVGFDDSYWNEIYTPKLTVISQPVKEMGQVAAKMIYKLIKGKDVTSIKLSTKLIIRESCSFNEGHHHHHH
protein production: not failed

MSLKYFKRLSDRERAIFEAGITLGAIYHQFCGTPVSPGTAEEVAKCIERAALLQPCVIDARVEVDVSSEDTDNYGGYTEVSGRNLRVTIVTRCGEWEAVGKLEFIEELNYPLMWVEEIRRVEQEGHHHHHH
protein production: not failed

MSLLEKDINLKIFKGNLIFTKTSDKFTIMKDSYIVVIDGKIASVSSNLPDKYKGNPIIDFRNNIIIPGMNDLHAHASQYKNLGIGMDKELLPWLNNYTFPEEAKFLNVDYAKKTYGRLIKDLIKNGTTRVALFATLHKDSTIELFNMLIKSGIGAYVGKVNMDYNCPDYLTENYITSLNDTEEIILKYKDKSNIVKPIITPRFVPSCSNELMDGLGKLSYKYRLPVQSHLSENLDEIAVVKSLHKKSNFYGEVYDKFGLFGNTPTLMAHCIHSSKEEINLIKRNNVTIVHCPTSNFNLGSGMMPVRKYLNLGINVVLGSDISAGHTCSLFKVIAYAIQNSKIKWQESGKKDMFLSTSEAFYMATKKGGSFFGKVGSFEEGYDFDALVINDSNLYPEDYDLTERLERFIYLGDDRNIMKRYVCGNEIFGPKFEGHHHHHH
protein production: not failed

MSLLFLAMAPKPKPWVQTEGPEKKKGRQAGREEDPFRSTAEALKAIPAEKRIIRVDPTCPLSSNPGTQVYEDYNCTLNQTNIENNNNKFYIIQLLQDSNRFFTCWNRWGRVGEVGQSKINHFTRLEDAKKDFEKKFREKTKNNWAERDHFVSHPGKYTLIEVQAEDEAQEAVVKVDRGPVRTVTKRVQPCSLDPATQKLITNIFSKEMFKNTMALMDLDVKKMPLGKLSKQQIARGFEALEALEEALKGPTDGGQSLEELSSHFYTVIPHNFGHSQPPPINSPELLQAKKDMLLVLADIELAQALQAVSEQEKTVEEVPHPLDRDYQLLKCQLQLLDSGAPEYKVIQTYLEQTGSNHRCPTLQHIWKVNQEGEEDRFQAHSKLGNRKLLWHGTNMAVVAAILTSGLRIMPHSGGRVGKGIYFASENSKSAGYVIGMKCGAHHVGYMFLGEVALGREHHINTDNPSLKSPPPGFDSVIARGHTEPDPTQDTELELDGQQVVVPQGQPVPCPEFSSSTFSQSEYLIYQESQCRLRYLLEVHL
protein production: not failed

MSLNLTIGTSKFNPPFEVWSGNNSSLYGFDIDLMQEICRRLHATCTFEAYIFDDLFPALKNREVDLVIASMIITDERKKHFIFSLPYMESNSQYITTVDSKISTFDDLHGKKIGVRKGTPYARQVLSENRNNQVIFYELIQDMLLGLSNNQVDASLMDYEAAKYWMASEPYAYKLIGKKYKLIGKKISIGEGYSIMANPDQFVLIKKINKILLEMEADGTYLRLYSEYFEGHHHHHH
protein production: not failed

MSLNMFWFLPTHGDGHYLGTEEGSRPVDHGYLQQIAQAADRLGYTGVLIPTGRSCEDAWLVAASMIPVTQRLKFLVALRPSVTSPTVAARQAATLDRLSNGRALFNLVTGSDPQELAGDGVFLDHSERYEASAEFTQVWRRLLQRETVDFNGKHIHVRGAKLLFPAIQQPYPPLYFGGSSDVAQELAAEQVDLYLTWGEPPELVKEKIEQVRAKAAAHGRKIRFGIRLHVIVRETNDEAWQAAERLISHLDDETIAKAQAAFARTDSVGQQRMAALHNGKRDNLEISPNLWAGVGLVRGGAGTALVGDGPTVAARINEYAALGIDSFVLSGYPHLEEAYRVGELLFPLLDVAIPEIPQPQPLNPQGEAVANDFIPRKVAQS
protein production: not failed

MSLNTSIYGLIGEKLGHSHSSYIHKLIFEKVGIKGIYNLFEVPKEKLKESVDTFKIIKCGGLNVTIPYKVEVMKELYEISEKARKIGAVNTLKFSREGISGFNTDYIGFGKMLSKFRVEIKNNICVVLGSGGAARAVLQYLKDNFAKDIYVVTRNPEKTSEIYGEFKVISYDELSNLKGDVIINCTPKGMYPKEGESPVDKEVVAKFSSAVDLIYNPVETLFLKYARESGVKAVNGLYMLVSQAAASEEIWNDISIDEIIVDEIFEVLEEKIKSEGHHHHHH
protein production: not failed

MSLNYEESNLIVFGVGFDGTTSNRPGARFASSSMRKEFYGLETYSPFLDLDLEDYNICDYGDLEISVGSTEQVLKEIYQETYKIVRDSKVPFMIGGEHLVTLPAFKAVHEKYNDIYVIHFDAHTDLREEYNNSKNSHATVIKRIWDIVGDNKIFQFGIRSGTKEEFKFATEEKHTYMEIGGIDTFENIVNMLNGKNIYLTIDLDVLDASVFPGTGTPEPGGVNYREFQEIFKIIKNSNINIVGCDIVELSPDYDTTGVSTVIACKILRELCLIISDKIKEGHHHHHH
protein production: not failed

MSLPAFVEALLTPAAYPHAVTTPIQLLQTHISYVFLTGDYAYKVKKPADFGFLNFTTLERRLFYCQEELRLNRRLAPDLYLAVVPIVAVGDRYCVAHPQDLPAGAEVIEYAVQMRQFDQSQLFSHLFAANQVTPHLIESLGKELAHFHRCAATSPRISEFGSPRAIAQVINNCHALAAQFVGRCQSPEQYAAIQAFTDDFLSRRQEWFVRRQAGGKIRECHGDLHLNNICLYNGKVQIFDCIEFNEEFRNIDGIYDAAFLLMDLEFRRRGDLANLFLNTYLEWSGDYEGAVLLPLYLCVRAYIRGNVNALALNDPAISGAEKAQIQATAAAYYGAAYRYTQPRQAKLYMMCGLSGAGKSTRGRRLAQAEQAIQIRSDAVRKHLAHLPLDRRSTDFPEVDLYSDAMTEKTYDQLLAYAELLLPQGQTVILDAKYDRVALRQPVIALAKKLHVPLEIHFCSAPPEELHRRLSARQGDIAEATPDLIATQMASFEPFLPEEEPYVRHVCD
protein production: failed

MSLRIAIVGAGALGLYYGALLQRSGEDVHFLLRRDYEAIAGNGLKVFSINGDFTLPHVKGYRAPEEIGPMDLVLVGLKTFANSRYEELIRPLVEEGTQILTLQNGLGNEEALATLFGAERIIGGVAFLCSNRGEPGEVHHLGAGRIILGEFLPRDTGRIEELAAMFRQAGVDCRTTDDLKRARWEKLVWNIPFNGLCALLQQPVNLILARDVSRKLVRGIMLEVIAGANAQGLATFIADGYVDDMLEFTDAMGEYKPSMEIDREEGRPLEIAAIFRTPLAYGAREGIAMPRVEMLATLLEQATGEGHHHHHH
protein production: not failed

MSLRKQSWLWMLLVILSETSATSTLKMFDNSQGMTKAALLAIIILLYCVCYYSLSKAVRHLPVGLAYATWSGTGILLVSTLSIIFYGQHPDIPAIVGMIVIATGIMIMNLFSKMGVDEQPEKLDSSNQSQPLETKIIH
protein production: failed

MSLRRLLAVFAVVGMVVIAGCAGGIDNGEPATSGVTEQATTTVATTETAAPTGELVVHQLNVGQGSSTLVVGPDGETLLIDTGDWTDDGEDVIAYLESQGVTRIDHLVTSHPDADHIGGHAAVIEHFETNGDGVGAVYDPGIASSSATYEEYLDAVEAHNVPLYRTQAGDSIPMSGATAQILAPPEGYLANEDRNENSIVVHVQFGASSFLLPGDGETASEEYLVDTYGDRLNSTVLVVGHHGSRSSTSAAFLEAVSPRVAVISSAYESQYGHPHEAVLERLAARSIPTYWTATHGTITFTSNGSAVTVATQQDAPTTATELRSGDPVEPGTGGGLVDRLVIPTAGSGTTPITDPDGTTEPAETTSTSTAGRLDLVEIHADAAGDDAENLNGEYITVEHTGASSLDLSGWTLADAAGHSYTIPEGTVLEPGDQLTIYTGSGTDTATELYWGQSSPVWNNGGDTISLRDATGTTVIEETY
protein production: failed
